Data set [1] concerns the target PD-1 ligand (PD-L1) fused to an intracellular monomeric green fluorescent protein (mGFP), Q9NZQ7. The data set is described as follows: DNA-PAINT super-resolution microscopy with nearest-neighbour analysis (SPINNA); CHO cells co-expressing CD80-mCherry and PD-L1-mEGFP, fixed with 4% PFA; labelled with anti-mCherry and anti-GFP nanobodies; two-round Exchange-PAINT, ~3 nm localization precision; model of monomers, homodimers …. The following applies: other: DNA-PAINT super-resolution microscopy with nearest-neighbour analysis (SPINNA).

Data set [2] addresses T1, CD80 fused to intracellular monomeric Cherry (mCherry), P33681.
T1 chain: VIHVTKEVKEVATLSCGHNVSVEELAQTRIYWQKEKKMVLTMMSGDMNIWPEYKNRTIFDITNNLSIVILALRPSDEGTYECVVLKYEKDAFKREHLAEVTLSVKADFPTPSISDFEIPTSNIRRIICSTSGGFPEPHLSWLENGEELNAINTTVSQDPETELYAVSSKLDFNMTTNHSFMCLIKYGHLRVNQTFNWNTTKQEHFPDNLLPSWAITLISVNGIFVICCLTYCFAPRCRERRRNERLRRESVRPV
The data set is described as follows: DNA-PAINT super-resolution microscopy with nearest-neighbour analysis (SPINNA); CHO cells co-expressing CD80-mCherry and PD-L1-mEGFP, fixed with 4% PFA; labelled with anti-mCherry and anti-GFP nanobodies; two-round Exchange-PAINT, ~3 nm localization precision; model of monomers, homodimers and heterodimers fitted to nearest-neighbour distances with density masks; 3 cells. The following applies: remark: other sources report otherwise.

Data set [3] addresses T1, CD80 fused to intracellular monomeric …. The description is as above. To be noted: remark: other sources report otherwise.

Chain of PD-1 ligand (PD-L1) fused to an intracellular monomeric green fluorescent protein (mGFP), Q9NZQ7 (Q9NZQ7 19-290): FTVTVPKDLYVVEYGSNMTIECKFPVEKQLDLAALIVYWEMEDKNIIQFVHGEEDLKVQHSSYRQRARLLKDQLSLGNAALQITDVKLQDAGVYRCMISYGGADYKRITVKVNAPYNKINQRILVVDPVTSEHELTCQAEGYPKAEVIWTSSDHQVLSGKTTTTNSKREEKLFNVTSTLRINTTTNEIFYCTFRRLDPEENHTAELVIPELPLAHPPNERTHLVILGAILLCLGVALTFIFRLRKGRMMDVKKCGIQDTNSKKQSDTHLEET

B1: CD80 fused to intracellular monomeric Cherry (mCherry) (protein)
chain: T1 chain
Consider B1, for which the “percent of all molecules in heterodimers” value in data set [1] is “PD-L1 and CD80 heterodimers (27 ± 5) %”.

B2: CD80 fused to intracellular monomeric Cherry (mCherry), P33681 35-288 (ligand)
chain: T1 chain
As for B2, the percent of all molecules in homodimers in data set [2] came to 9%; in data set [3], 11%.

These data come from publication PMC12056017.
